Measurements reported in publication PMC4692385, “Identification of Thyroid Hormones and Functional Characterization of Thyroid Hormone Receptor in the Pacific Oyster Crassostrea gigas Provide Insight into Evolution of the Thyroid Hormone System”.

B1: DR1 (dsDNA)
DNA 1: CCGTAAGGTCACAGGTCACTCG
DNA 2: CGAGTGACCTGTGACCTTACGG
B2: DR3 (dsDNA)
DNA 1: CCGTAAGGTCACAGAGGTCACTCG
DNA 2: CGAGTGACCTCTGTGACCTTACGG
B3: DR5 (dsDNA)
DNA 1: CCGTAAGGTCACCAGGAGGTCACTCG
DNA 2: CGAGTGACCTCCTGGTGACCTTACGG
B4: DR2 (dsDNA)
DNA 1: CCGTAAGGTCACAAGGTCACTCG
DNA 2: CGAGTGACCTTGTGACCTTACGG
B5: DR0 (dsDNA)
DNA 1: CCGTAAGGTCAAGGTCACTCG
DNA 2: CGAGTGACCTTGACCTTACGG
B6: CgDR5 (dsDNA)
DNA 1: GTCCGTGATCACGGGTAGGTCAAACTG
DNA 2: CAGTTTGACCTACCCGTGATCACGGAC
B7: DR4 (dsDNA)
DNA 1: CCGTAAGGTCACAGGAGGTCACTCG
DNA 2: CGAGTGACCTCCTGTGACCTTACGG

Assays:
[1] = target: rCgTR (Crassostrea gigas, UniProt A0A0F6V015 1-479); assay: EMSA; no ligand; LightShift Chemiluminescent EMSA kit (Pierce), manufacturer's instructions; buffer, salt, pH and temperature not stated; 100-fold cold probe competition; anti-His supershift; details: protein: recombinant, tags: pET30a, label: biotin, blunt
[2] = target: rCgTR1-240 (Crassostrea gigas, UniProt A0A0F6V015 1-240); assay: EMSA; no ligand; homodimer and monomer bands; LightShift Chemiluminescent EMSA kit (Pierce), manufacturer's instructions; buffer, salt, pH and temperature not stated; 100-fold cold probe competition; anti-His supershift; details: protein: recombinant, tags: pET30a, label: biotin, blunt
Sequence of rCgTR1-240 (A0A0F6V015 entry or part of it): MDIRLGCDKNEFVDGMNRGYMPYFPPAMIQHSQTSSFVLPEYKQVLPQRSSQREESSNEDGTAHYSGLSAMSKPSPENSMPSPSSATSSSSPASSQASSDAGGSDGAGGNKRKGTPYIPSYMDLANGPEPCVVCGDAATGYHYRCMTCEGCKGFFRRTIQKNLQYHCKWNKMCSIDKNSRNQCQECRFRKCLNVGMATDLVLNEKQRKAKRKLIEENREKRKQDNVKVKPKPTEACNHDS

Sequence of rCgTR (A0A0F6V015 entry or part of it): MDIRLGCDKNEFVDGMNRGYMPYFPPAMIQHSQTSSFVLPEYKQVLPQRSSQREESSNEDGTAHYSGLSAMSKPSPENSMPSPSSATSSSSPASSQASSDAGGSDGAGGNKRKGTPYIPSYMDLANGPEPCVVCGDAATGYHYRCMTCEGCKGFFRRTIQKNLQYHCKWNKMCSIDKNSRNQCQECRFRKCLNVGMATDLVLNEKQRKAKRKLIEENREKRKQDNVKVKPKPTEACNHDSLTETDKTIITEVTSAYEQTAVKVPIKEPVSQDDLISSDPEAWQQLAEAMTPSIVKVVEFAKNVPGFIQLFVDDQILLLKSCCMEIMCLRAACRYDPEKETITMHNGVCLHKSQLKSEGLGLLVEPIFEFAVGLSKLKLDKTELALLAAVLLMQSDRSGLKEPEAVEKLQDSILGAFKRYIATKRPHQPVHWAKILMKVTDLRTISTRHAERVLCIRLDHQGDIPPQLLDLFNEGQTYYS

Binder	binding result [1]	binding result [2]
B1	binds	–
B2	binds	–
B3	binds	–
B4	binds	binds
B5	binds	–
B6	binds	–
B7	binds	–
